Residue numbers refer to the chain shown, from its start. Numbers in names are those of the source. Each block holds one binder with its values, some of them ahead of it.
Experiments:
[1] = target: T1, mouse PD-1 (mPD-1) on transfected CHO cells (mouse, UniProt Q02242 25-288); assay: flow cytometry, antibody at 1 µg/ml on CHO cells transfected with mPD-1 (CHO-mPD-1); anti-mIgG Fc-FITC against SSC-H
T1 sequence: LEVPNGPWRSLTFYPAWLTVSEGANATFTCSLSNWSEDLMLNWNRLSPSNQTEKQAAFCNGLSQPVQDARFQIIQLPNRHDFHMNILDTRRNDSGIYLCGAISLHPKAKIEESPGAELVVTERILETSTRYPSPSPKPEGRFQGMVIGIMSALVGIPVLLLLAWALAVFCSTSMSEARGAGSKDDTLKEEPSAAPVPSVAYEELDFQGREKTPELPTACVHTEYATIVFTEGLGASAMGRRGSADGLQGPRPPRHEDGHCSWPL
Description: (§1) 25 μl CHO cells were added to each well.
(§2) After being washed with PBS (1200 rmp, 5 min) twice, 50 μl of FITC labeled anti-mouse IgG Fc antibody (anti-mIgG Fc-FITC) was added into each well 1:500 dilution, followed by incubated at 4° C. for 30 minutes, and then PBS wash (1200 rmp, 5 min). The signals for FITC were determined by flow cytometry.

[2] = target: T2, monkey (rhesus macaque) PD-1 (rmPD-1) on transfected CHO cells (rhesus macaque, UniProt Q15116 25-288 (human entry)); assay: flow cytometry, antibody at 1 µg/ml on CHO cells transfected with rmPD-1 (CHO-rmPD-1); anti-mIgG Fc-FITC against SSC-H
T2 construct: also called monkey PD-1
T2 chain: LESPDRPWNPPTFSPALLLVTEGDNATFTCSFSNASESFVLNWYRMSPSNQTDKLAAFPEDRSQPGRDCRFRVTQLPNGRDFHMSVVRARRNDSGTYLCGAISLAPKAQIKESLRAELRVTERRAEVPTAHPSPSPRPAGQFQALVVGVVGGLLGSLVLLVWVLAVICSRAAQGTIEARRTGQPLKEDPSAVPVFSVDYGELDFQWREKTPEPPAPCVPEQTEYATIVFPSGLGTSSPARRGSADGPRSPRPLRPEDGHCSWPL
Description: as §1, §2

[3] = target: T1, mouse PD-1 (mPD-1) on transfected CHO …; assay: flow cytometry on CHO cells transfected with mouse PD-1
Description: as §1, §2

[4] = target: T3, Histidine-tagged human PD-1 protein (hPD-1-His) (human, UniProt Q15116 25-170, limits assumed); assay: SPR (Biacore T200), antibody captured on Protein A chip, hPD-1-His analyte, 1:1 fit
T3 construct: Soluble analyte in SPR; not shown: histidine tag
Description: The binding affinity of the anti-hPD-1 antibodies were measured using surface plasmon resonance (SPR) using Biacore™ (Biacore™, INC, Piscataway N.J.) T200 biosensor equipped with pre-immobilized Protein A sensor chips.
Histidine-tagged human PD-1 proteins (hPD-1-His) at the concentration of 200, 100, 50, 25, 12.5, 6.25, 3.125, 1.5625 nM were then injected at 30 μL/min for 100 seconds. Dissociation was monitored for 400 seconds. The chip was regenerated after the last injection of each titration with Glycine (pH 2.0, 30 μL/min for 12 seconds).
As a person of ordinary skill in the art would understand, the same method with appropriate adjustments for parameters (e.g., antibody concentration) was performed for each tested antibody.

T3 sequence (Q15116 25-170 limits assumed): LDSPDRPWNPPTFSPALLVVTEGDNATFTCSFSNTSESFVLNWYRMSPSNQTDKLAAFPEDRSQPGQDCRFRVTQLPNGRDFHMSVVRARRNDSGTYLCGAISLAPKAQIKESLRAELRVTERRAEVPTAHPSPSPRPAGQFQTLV

% cells positive for Anti-mouse-IgGFc-FITC [1]: 0.381% | % cells positive for Anti-mouse-IgGFc-FITC [2]: 85% | binding result [3]: no binding (tested: 1 µg/ml)
B1: mouse anti-hPD-1 antibody 25-1A7 (antibody, V domains shown)
VH: EVKLVESGGGLVQPGGSLKLSCAASGFTFSSYSMSWVRQTPEKRLEWVAHISSGGSSTYYPDTVKGRFTISRDNARNTLYLQMSSLKSEDTAMYYCTRQFYYGSSFWYFDVWGAGTTVTVSS
VL: DNVLTQSPVSLAVSLGQRATISCKASQSVDFDGDSYMNWYQQKPGQPPKLLIYAASNLESGIPARFSGSGSGTDFTLNIHPVEEEDAATYYCQQSNEDPPTFGGGTKLEIK
notes: Mouse monoclonal antibody purified from ascites

Kd [4]: 346 nM | koff [4]: 0.00128 s⁻¹ | kon [4]: 3700 M⁻¹ s⁻¹
B13: 3F1-mHvKv-IgG4-S228P (antibody, V domains shown)
VH: QVQLQQSGAELAKPGASVKMSCKASGYTFTSYWMHWVKQRPGQGLEWIGYINPSTGYTEYNQKFKDKATLTADKSSSTAYMQLSSLTSEDSAVYYCARGVRYYFDYWGQGTTLTVSS
VL: DIVMSQSPSSLAVSAGEKVTMSCKSSQSLLNSRTRKNYLAWYQQKPGQSPKLLIYWASTRESGVPDRFTGSGSGTDFTLTISSVQAEDLAVYYCKQSYNLLTFGAGTKLELK
notes: Chimeric antibody: mouse 3F1 variable domains, human IgG4 constant domains (CL, CH1, CH2, CH3) with S228P (EU numbering); also called 18-3F1-mHvKv-IgG4-S228P; 3F1-mHyKy-IgG4-S228P

Kd [4]: 395 nM | koff [4]: 0.00179 s⁻¹ | kon [4]: 4530 M⁻¹ s⁻¹
B14: 3F1-H3K1-IgG4-S228P (antibody, V domains shown)
VH: B13 VH with L11V, K67R, K74T, S76T, Q82E, T87R, S91T, T112L
VL: B13 VL with S5T, S9D, A15L, K18R, V19A, M21I, T69S, L89V, A105Q
notes: Humanized; human IgG4 constant domains with S228P (EU numbering)

% cells positive for Anti-mouse-IgGFc-FITC [1]: 0.502% | % cells positive for Anti-mouse-IgGFc-FITC [2]: 64.3% | binding result [3]: no binding (tested: 1 µg/ml)
B15: mouse anti-hPD-1 antibody 3-6G1 (antibody, V domains shown)
VH: B13 VH with V18L, F29L, S54N, V100T, R101A
VL: B13 VL with L101Q, A105G, L111I
notes: Mouse monoclonal antibody purified from ascites; also called 03-6G1

Kd [4]: 397 nM | koff [4]: 0.00161 s⁻¹ | kon [4]: 4060 M⁻¹ s⁻¹
B17: 3F1-H4K3-IgG4-S228P (antibody, V domains shown)
VH: B13 VH with L11V, K67R, S76T, Q82E, S91T, T112L
VL: B13 VL with S5T, K18R, T69S, L89V, A105Q
notes: as for B14

Kd [4]: 329 nM | koff [4]: 0.00145 s⁻¹ | kon [4]: 4410 M⁻¹ s⁻¹
B18: 3F1-H2K3-IgG4-S228P (antibody, V domains shown)
VH: B13 VH with L11V, A12K, K67R, S76T, Q82E, T87R, S91T, T112L, L113V
VL: B13 VL with S5T, K18R, T69S, L89V, A105Q
notes: as for B14

Kd [4]: 354 nM | koff [4]: 0.0017 s⁻¹ | kon [4]: 4810 M⁻¹ s⁻¹
B19: 3F1-H2K2-IgG4-S228P (antibody, V domains shown)
VH: B13 VH with L11V, A12K, K67R, S76T, Q82E, T87R, S91T, T112L, L113V
VL: B13 VL with S5T, S9D, A15L, K18R, V19A, T69S, L89V, A105Q
notes: as for B14

Kd [4]: 318 nM | koff [4]: 0.00139 s⁻¹ | kon [4]: 4380 M⁻¹ s⁻¹
B20: 3F1-H3K3-IgG4-S228P (antibody, V domains shown)
VH: B13 VH with L11V, K67R, K74T, S76T, Q82E, T87R, S91T, T112L
VL: B13 VL with S5T, K18R, T69S, L89V, A105Q
notes: as for B14

Kd [4]: 460 nM | koff [4]: 0.00204 s⁻¹ | kon [4]: 4420 M⁻¹ s⁻¹
B21: 3F1-H4K1-IgG4-S228P (antibody, V domains shown)
VH: B13 VH with L11V, K67R, S76T, Q82E, S91T, T112L
VL: B13 VL with S5T, S9D, A15L, K18R, V19A, M21I, T69S, L89V, A105Q
notes: as for B14

Kd [4]: 422 nM | koff [4]: 0.00192 s⁻¹ | kon [4]: 4550 M⁻¹ s⁻¹
B22: 3F1-H2K1-IgG4-S228P (antibody, V domains shown)
VH: B13 VH with L11V, A12K, K67R, S76T, Q82E, T87R, S91T, T112L, L113V
VL: B13 VL with S5T, S9D, A15L, K18R, V19A, M21I, T69S, L89V, A105Q
notes: as for B14

Kd [4]: 369 nM | koff [4]: 0.00177 s⁻¹ | kon [4]: 4800 M⁻¹ s⁻¹
B25: 3F1-H4K2-IgG4-S228P (antibody, V domains shown)
VH: B13 VH with L11V, K67R, S76T, Q82E, S91T, T112L
VL: B13 VL with S5T, S9D, A15L, K18R, V19A, T69S, L89V, A105Q
notes: as for B14

The remaining lines, values behind:

B2: 1A7-H2K2-IgG4-S228P (antibody, V domains shown)
VH: B1 VH with K3Q, K19R, T40A, E42G, A75S, R76K, S84N, K87R, S88A
VL: DNVLTQSPATLSVSPGERATLSCKASQSVDFDGDSYMNWYQQKPGQPPRLLIYAASNLESGIPARFSGSGPGTDFTLTISSLEPEDFATYYCQQSNEDPPTFGGGTKVEIK
notes: as for B14
Kd [4]: 57.8 nM | koff [4]: 0.00282 s⁻¹ | kon [4]: 48800 M⁻¹ s⁻¹

B3: 1A7-H3K2-IgG4-S228P (antibody, V domains shown)
VH: B1 VH with K19R, T40A, E42G, A75S, R76K, S84N, K87R, S88A
VL: B2 VL
notes: as for B14
Kd [4]: 58.2 nM | koff [4]: 0.0028 s⁻¹ | kon [4]: 48100 M⁻¹ s⁻¹

B4: 1A7-H1K2-IgG4-S228P (antibody, V domains shown)
VH: EVQLLESGGGLVQPGGSLRLSCAASGFTFSSYSMSWVRQAPGKRLEWVAHISSGGSSTYYPDTVKGRFTISRDNSKNTLYLQMNSLRAEDTAMYYCTRQFYYGSSFWYFDVWGQGTTVTVSS
VL: B2 VL
notes: as for B14
Kd [4]: 32.1 nM | koff [4]: 0.00265 s⁻¹ | kon [4]: 82600 M⁻¹ s⁻¹

B5: 1A7-H2K3-IgG4-S228P (antibody, V domains shown)
VH: B4 VH with L5V, Q114A
VL: B2 VL with P71S, L82V
notes: as for B14
Kd [4]: 11.9 nM | koff [4]: 0.00136 s⁻¹ | kon [4]: 115000 M⁻¹ s⁻¹

B6: 1A7-H3K3-IgG4-S228P (antibody, V domains shown)
VH: B4 VH with Q3K, L5V, Q114A
VL: B2 VL with P71S, L82V
notes: as for B14
Kd [4]: 12.9 nM | koff [4]: 0.00132 s⁻¹ | kon [4]: 102000 M⁻¹ s⁻¹

B7: 1A7-H3K1-IgG4-S228P (antibody, V domains shown)
VH: B4 VH with Q3K, L5V, Q114A
VL: B2 VL with V13L
notes: as for B14
Kd [4]: 39.9 nM | koff [4]: 0.00264 s⁻¹ | kon [4]: 66200 M⁻¹ s⁻¹

B8: 1A7-H1K1-IgG4-S228P (antibody, V domains shown)
VH: B4 VH
VL: B2 VL with V13L
notes: as for B14
Kd [4]: 47.9 nM | koff [4]: 0.00272 s⁻¹ | kon [4]: 56800 M⁻¹ s⁻¹

B9: 1A7-H1K3-IgG4-S228P (antibody, V domains shown)
VH: B4 VH
VL: B2 VL with P71S, L82V
notes: as for B14
Kd [4]: 10.1 nM | koff [4]: 0.00119 s⁻¹ | kon [4]: 118000 M⁻¹ s⁻¹

B10: 1A7-H2K1-IgG4-S228P (antibody, V domains shown)
VH: B4 VH with L5V, Q114A
VL: B2 VL with V13L
notes: as for B14
Kd [4]: 57.3 nM | koff [4]: 0.0028 s⁻¹ | kon [4]: 48900 M⁻¹ s⁻¹

B11: mouse anti-hPD-1 antibody 18-3F1 (antibody, V domains shown)
VH: B13 VH
VL: B13 VL
notes: as for B1
% cells positive for Anti-mouse-IgGFc-FITC [1]: 1.51% | % cells positive for Anti-mouse-IgGFc-FITC [2]: 63.6% | binding result [3]: no binding (tested: 1 µg/ml)

B12: 3F1-H3K2-IgG4-S228P (antibody, V domains shown)
VH: B13 VH with L11V, K67R, K74T, S76T, Q82E, T87R, S91T, T112L
VL: B13 VL with S5T, S9D, A15L, K18R, V19A, T69S, L89V, A105Q
notes: as for B14
Kd [4]: 296 nM | koff [4]: 0.0015 s⁻¹ | kon [4]: 5060 M⁻¹ s⁻¹

B16: 3F1-H1K2-IgG4-S228P (antibody, V domains shown)
VH: QVQLQQSGAEVKKPGASVKMSCKASGYTFTSYWMHWVRQAPGQGLEWIGYINPSTGYTEYNQKFKDRATLTADTSTSTAYMELSSLRSEDTAVYYCARGVRYYFDYWGQGTLVTVSS
VL: B13 VL with S5T, S9D, A15L, K18R, V19A, T69S, L89V, A105Q
notes: as for B14
Kd [4]: 294 nM | koff [4]: 0.00155 s⁻¹ | kon [4]: 5270 M⁻¹ s⁻¹

B23: 3F1-H1K1-IgG4-S228P (antibody, V domains shown)
VH: B16 VH
VL: B13 VL with S5T, S9D, A15L, K18R, V19A, M21I, T69S, L89V, A105Q
notes: as for B14
Kd [4]: 376 nM | koff [4]: 0.00181 s⁻¹ | kon [4]: 4810 M⁻¹ s⁻¹

B24: 3F1-H1K3-IgG4-S228P (antibody, V domains shown)
VH: B16 VH
VL: B13 VL with S5T, K18R, T69S, L89V, A105Q
notes: as for B14
Kd [4]: 275 nM | koff [4]: 0.00132 s⁻¹ | kon [4]: 4790 M⁻¹ s⁻¹
